In patent US20040052799A1, “Nucleic acid and amino acid sequences relating to Helicobacter pylori for diagnostics and therapeutics” (Astra Aktiebolag, priority 1996, published 2004):

What was measured:
[1] = substrate: N[C@H](CCC(=O)O)C(=O)O; experiment: Glutamate racemase activity, conversion of D-glutamate to L-glutamate (two enzyme and single enzyme coupled assays); format: biochemical, H. pylori; conditions: other: purified recombinant enzyme; 37.0 °C
Description: The activity of glutamate racemase, interconversion of the enantiomers of glutamic acid, was measured using D-glutamic acid as substrate. The method of Gallo and Knowles (Gallo, K. A. and Knowles, J. R., 1993, Biochmistry 32, 3981-3990) that was used to measure the glutamate racemase activity of Lactobacillus fermenti was adapted for the measurement of glutamate racemase activity of the H. pylori murI gene product isolated as a recombinant protein from E. coli. […] Initial rates were determined by following the increase in absorbance at 500 nm in a reaction volume of 200 μl containing 50 mM Tris-HCl, pH 7.8, 4% v/v glycerol, 10 mM NAD, 2 mM INT, 60 Units/ml L-glutamate dehydrogenase, 5 Units/ml diaphorase, and varying concentrations of either substrate (from 0.063 mM to 250 mM D-glutamic acid) or purified enzyme (from 1 μg to 50 μg). After a preincubation of all reagents except either the substrate (D-glutamic acid) or the enzyme (murI gene product) for a period of 5 minutes, reactions were initiated by adding the missing ingredient (i.e., the enzyme or the subtrate, as required), and the increase in optical density at 500 nm was measured in a Microplate Spectophotometer System (Molecular Devices, Spectra MAX 250). Measurements were followed for 20 minutes, and initial velocities were derived by calculating the maximum slope for the absorbance increases. […]

[2] = substrate: N[C@@H](CC=O)C(=O)O; experiment: Asd assay, reverse reaction, NADPH formation; format: biochemical, E. coli; conditions: other: pH 7.5

Protein	Km [1]	Km [2]
H. pylori glutamate racemase (murI gene product) (Helicobacter pylori J99) (protein, made in house; host or cells: E. coli BL21(DE3) carrying pET-23-murI and pACYC-groE (GroES/GroEL co-expressed)) MKIGVFDSGVGGFSVLKSLLKARLFDEIIYYGDSARVPYGTKDPTTIKQFGLEALDFFKPHEIELLIVACNTASALALEEMQKYSKIPIVGVIEPSILAIKRQVEDKNAPILVLGTKATIQSNAYDNALKQQGYLNISHLATSLFVPLIEESILEGELLETCMHYYFTPLEILPEVIILGCTHFPLIAQKIEGYFMGHFALPTPPLLIHSGDAIVEYLQQKYALKNNACTFPKVEFHASGDVIWLERQAKEWLKL	100 µM	
E. coli Asd (Escherichia coli K-12) (protein, made in house; host or cells: E. coli HMS174 pLysS, pET28b) MKNVGFIGWRGMVGSVLMQRMVEERDFDAIRPVFFSTSQLGQAAPSFGGTTGTLQDAFDLEALKALDIIVTCQGGDYTNEIYPKLRESGWQGYWIDAASSLRMKDDAIIILDPVNQDVITDGLNNGIRTFVGGNCTVSLMLMSLGGLFANDLVDWVSVATYQAASGGGARHMRELLTQMGHLYGHVADELATPSSAILDIERKVTTLTRSGELPVDNFGVPLAGSLIPWIDKQLDNGQSREEWKGQAETNKILNTSSVIPVDGLCVRVGALRCHSQAFTIKLKKDVSIPTVEELLAAHNPWAKVVPNDREITMRELTPAAVTGTLTTPVGRLRKLNMGPEFLSAFTVGDQLLWGAAEPLRRMLRQLA		104 µM
